T1: GST-SPATIAL(L) (Mus musculus, UniProt Q7TSD4)
T1 construct: made in house
T1 sequence (Q7TSD4 with tags, fused parts or gaps isoform Q7TSD4-6 limits assumed): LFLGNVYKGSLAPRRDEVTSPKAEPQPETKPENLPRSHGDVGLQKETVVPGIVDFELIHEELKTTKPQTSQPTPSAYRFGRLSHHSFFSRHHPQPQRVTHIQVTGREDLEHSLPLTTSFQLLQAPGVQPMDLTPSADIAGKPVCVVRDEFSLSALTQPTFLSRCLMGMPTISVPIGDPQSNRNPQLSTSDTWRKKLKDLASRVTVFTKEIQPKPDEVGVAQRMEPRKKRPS

T2: Uba3/AppBP1 protein complex (Mus musculus, UniProt Q8C878)
T2 construct: Myc-tagged, full-length mouse Uba3; host or cells: cell-free: TNT Coupled Reticulocyte Lysate System, 35S-methionine labelled
T2 sequence (Q8C878 22-462 V120X/V142X/I148X/P243X limits assumed): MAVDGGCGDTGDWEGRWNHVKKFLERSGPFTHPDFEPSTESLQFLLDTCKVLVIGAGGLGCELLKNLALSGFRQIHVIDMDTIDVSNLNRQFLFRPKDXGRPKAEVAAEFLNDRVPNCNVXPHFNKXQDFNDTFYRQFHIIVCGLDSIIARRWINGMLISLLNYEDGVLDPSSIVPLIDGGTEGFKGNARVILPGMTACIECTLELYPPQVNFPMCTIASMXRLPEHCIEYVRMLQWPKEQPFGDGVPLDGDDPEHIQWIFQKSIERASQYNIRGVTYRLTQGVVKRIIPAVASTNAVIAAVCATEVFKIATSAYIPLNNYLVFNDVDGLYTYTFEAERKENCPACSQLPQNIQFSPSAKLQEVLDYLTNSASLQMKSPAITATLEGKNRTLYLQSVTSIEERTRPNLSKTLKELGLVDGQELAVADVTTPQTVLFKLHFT

B1: Uba3: catalytic subunit of NEDD8 activating enzyme, a 441-amino acid protein (SEQ ID NO: 6) (protein, listed as Mus musculus)
chain: T2 sequence (Q8C878 22-462 V120X/V142X/I148X/P243X limits assumed)
modifications: (99)..(99) The ′Xaa′ at location 99 stands for Val.; (121)..(121) The ′Xaa′ at location 121 stands for Val.; (127)..(127) The ′Xaa′ at location 127 stands for Ile.; (222)..(222) The ′Xaa′ at location 222 stands for Pro.
B2: GST-SPATIAL: glutathione-S-transferase SPATIAL fusion protein (protein)
chain: T1 sequence (Q7TSD4 with tags, fused parts or gaps isoform Q7TSD4-6 limits assumed)
modifications: left off: a dimerising Fc or GST
notes: glutathione-S-transferase SPATIAL fusion protein

Assays:
GST-SPATIAL(L) = target: T1, GST-SPATIAL(L); experiment: GST pulldown assay with GST-SPATIAL long isoform; type: binding; conditions: 35S-methionine labeled in vitro translated protein
Description: Eighteen cDNA clones identified in the yeast two-hybrid system were tested in an in vitro glutathione-S-transferase (GST) pulldown assay, as described in Ausubel et al., Current Protocols in Molecular Biology, Greene Publishing Associates, updated November 2003, Chapter 20, Analysis of Protein Interactions, Unit 20.2, Affinity Purification of Proteins Binding to GST Fusion Proteins.
Briefly, a GST-SPATIAL fusion construct was produced by cloning SPATIAL cDNA(s) into pGEx5X1 expression vector using standard molecular cloning techniques. GST or GST-SPATIAL fusion protein were expressed in 1-1000 ml bacterial cultures grown for 3-4 hours until OD600 reached 0.5. Then, plasmid expression was induced for 1.5-4 hours by the addition of ITPG to a final concentration of 0.11 mM. GST or GST-fusion proteins were purified using glutathione-Sepharose beads as described in Ausubel et al., Current Protocols in Molecular Biology, Greene Publishing Associates, updated November 2003, Chapter 20, Analysis of Protein Interactions, Unit 20.2, Affinity Purification of Proteins Binding to GST Fusion Proteins.
A coupled in vitro transcription and translation system (Promega) was used according to the manufacturer's instructions to produce radiolabeled protein from cDNAs to be tested. Radiolabeled proteins were mixed with either purified GST or GST-SPATIAL. Then, GST-containing protein complexes were purified by centrifugation from the reaction mixtures using glutathione-coated Sepharose beads. Bound proteins were eluted from the beads with SDS-PAGE loading buffer heated to 72-85° C., separated on polyacrylamide gels, and visualized by autoradiography. Specific interactions between GST-SPATIAL and in vitro translated proteins were indicated by the presence of a radiolabeled in vitro translated protein in the GST-SPATIAL-containing samples, but not in the GST-alone samples.
GST pulldown assays were performed as described in Example 9 using GST-SPATIAL(L) and GST-SPATIAL(S) and each of the Uba3 mutants described in this example.

293T cells = experiment: Uba3 co-transfection with SPATIAL-EGFP, growth arrest; type: cell-based, human; conditions: transient over expression, 0.5, 2.5 or 4.5 μg/well Uba3 plasmid, FIG. 9
Description: To determine whether Uba3 is involved in SPATIAL mediated growth suppression, co-transfections were done using increasing amounts of an Uba3 expression vector with constant amounts of SPATIAL-EGFP or EGFP.
4×10^5 293T cells were transfected in 6 well plates using 5 μg of a mixture of plasmids. The plasmids used were pEGFP-N1 (0.5 μg/well), pEGFP-SPATIAL(L) (0.5 μg/well), pcDNA3.1 Myc/his M Uba3 (0.5, 2.5 or 4.5 μg/well) (pcDNA3.1 myc/His may be obtained from Invitrogen), and pWL-neo (4 or 2 μg/well). The plasmid pWL-neo (Stratagene) was used as a control plasmid to make sure that the total DNA in each transfection totaled 5 μg. Transfections were done using Lipofectamine 2000 using manufacturers instructions (Invitrogen).
Twenty four hours after transfection, the cells were trypsinized and re-plated onto 10 cm dishes and cultured for up to 6 days. The number of EGFP-positive cells were determine at 24, 36 and 144 hours after transfection by harvesting the cells, counting and FACS analysis to determine the percentage of EGFP-positive cells.

[1] = target: T2, Uba3/AppBP1 protein complex; experiment: GST pulldown and immunoprecipitation, Uba3 and AppBP1 interaction; type: binding; conditions: FIG. 4
Description: To determine whether SPATIAL has an effect on the neddylation pathway, cDNAs for each of the components of the Nedd8 conjugation pathway were obtained from EST depositories (AppBP1, GenBank Accession No. BC00480; Uba3, GenBank Accession No. BC002002). These cDNAs were used to produce radiolabeled proteins by in vitro transcription and translation.
The effect of SPATIAL on the first step of the pathway, the interaction between Uba3 and AppBP1, was tested using a GST pulldown assay
In a typical GST pulldown assay, GST and GST-SPATIAL were prepared from transformed bacterial cultures as previously described (e.g., Ausubel et al., Current Protocols in Molecular Biology, Greene Publishing Associates, updated November 2003, Chapter 20, Analysis of Protein Interactions, Unit 20.2, Affinity Purification of Proteins Binding to GST Fusion Proteins). After purification, GST and GST-SPATIAL proteins were mixed with glutathione-sepharose beads and the mixtures were frozen in 200 μl aliquots. The amount of protein bound to the beads was quantitated using a colormetric assay (BCA assay; Pierce-Endogen).
Uba3 and AppBP1 were in vitro translated and ^35S-methionine labeled using 0.5 μg of the respective expression plasmids in a 50 μl reaction using TNT® Coupled Reticulocyte Lysate Systems (Promega) by following the manufacturer's instructions. […]

Molecule	interaction with GST-SPATIAL(L) (GST-SPATIAL(L))	effect on growth inhibition of SPATIAL-EGFP transfected cells (293T cells)	effect on Uba3 binding to AppBP1 [1]
B1	specifically bound	overcomes the growth inhibition	–
B2	–	–	interferes with Uba3 binding to AppBP1
